Values quoted from earlier work, collected in article PMC7704677.

Tests used:
Assay in all cases: UV-vis
Settings in all cases: unphotolysed state; further details not given
Asp85 = Asp85 (UniProt position 98, WARYADWLFTT)
Asp95 = Asp95 (UniProt position 95, FYRYADWLLTV)
Asp89 = tested on: Asp89
Asp75 = tested on: Asp75

For “Bacteriorhodopsin (HsBR) (Halobacterium salinarum)”, the pKa (Asp85) is given as 2.7.

For “Thermophilic rhodopsin (TR) (Thermus thermophilus)”, the pKa (Asp95) is listed as 3.4.

For “Acetabularia rhodopsin I (ARI) (Acetabularia acetabulum)”, the pKa (Asp89) is given as 2.7.

In the case of “Anabaena sensory rhodopsin (ASR) (Anabaena (Nostoc) sp.)”, the pKa (Asp75) is given as 4.0.
